Test results published in FireProtDB (doi:10.1074/jbc.271.51.32729).

B1: Ribonuclease HI, P0A7Y4 (parent)
chain: MLKQVEIFTDGSCLGNPGPGGYGAILRYRGREKTFSAGYTRTTNNRMELMAAIVALEALKEHCEVILSTDSQYVRQGITQWIHNWKKRGWKTADKKPVKNVDLWQRLDAALGQHQIKWEWVKGHAGHPENERCDELARAAAMNPTLEDTGYQVEV

Variants of: B1
Details: Escherichia coli (strain K12), Thermal, CD, reversible: yes, structure 2RN2, whole UniProt chain shown
[1] = pH 9, 47 °C, glycine-NaOH 50 mM

Row | Variant | ddG of mutation (higher = less stable) (pH 3, 50 °C, glycine-HCl 10 mM) | Tm (pH 3, glycine-HCl 10 mM) | change of melting temperature, mutant - wild type (higher = more stable) (pH 3, glycine-HCl 10 mM) | unfolding enthalpy (van 't Hoff) (pH 3, glycine-HCl 10 mM) | ddG of mutation (higher = less stable) [1] | Tm (pH 9, glycine-NaOH 50 mM) | change of melting temperature, mutant - wild type (higher = more stable) (pH 9, glycine-NaOH 50 mM)
1 | D10A | -2.4 kcal/mol | 58.1 °C | 8.1 °C | 105 kcal/mol | – | – | –
2 | D10E | -1.1 kcal/mol | 53.8 °C | 3.8 °C | 97.7 kcal/mol | -1 kcal/mol | 50.4 °C | 3.4 °C
3 | D10H | -0.4 kcal/mol | 51.5 °C | 1.5 °C | 115 kcal/mol | -2.4 kcal/mol | – | –
4 | D10N | 0.7 kcal/mol | 47.4 °C | -2.6 °C | 90.5 kcal/mol | -2 kcal/mol | 53.8 °C | 6.8 °C
5 | D10S | -0.7 kcal/mol | 52.4 °C | 2.4 °C | 121 kcal/mol | -2.7 kcal/mol | 56.2 °C | 9.2 °C
6 | E48A | 0.1 kcal/mol | 49.8 °C | -0.2 °C | 91.6 kcal/mol | 0.3 kcal/mol | 46 °C | -1 °C
7 | E48D | -0.2 kcal/mol | 50.8 °C | 0.8 °C | 103 kcal/mol | 0.2 kcal/mol | 46.2 °C | -0.8 °C
8 | E48Q | 0.1 kcal/mol | 49.8 °C | -0.2 °C | 99.1 kcal/mol | – | 48 °C | 1 °C
9 | D70A | 0.1 kcal/mol | 49.7 °C | -0.3 °C | 85.5 kcal/mol | -1.1 kcal/mol | 50.8 °C | 3.8 °C
10 | D70E | -0.5 kcal/mol | 51.8 °C | 1.8 °C | 90.4 kcal/mol | -0.1 kcal/mol | – | –
11 | D70N | 0.3 kcal/mol | 48.8 °C | -1.2 °C | 110 kcal/mol | – | 52.5 °C | 5.5 °C
12 | D134A | -0.8 kcal/mol | 52.9 °C | 2.9 °C | 105 kcal/mol | -2 kcal/mol | – | –
13 | D134N | 0.1 kcal/mol | 49.7 °C | -0.3 °C | 110 kcal/mol | -1.8 kcal/mol | 53.4 °C | 6.4 °C
